Measured values reported in publication PMC10689493 (Nature Communications, 2023).

B1: CC40.8 mAb (antibody, V domains shown)
VH: EVQLLESGGGLVQPGGSLRLSCAASGFTFSSYVMTWARQAPGKGLEWVSAISGTGYTYYADSVKGRFTVSRDNSKNTLFLQMSSLRAEDTAVYYCAITMAPVVWGQGTTVTVSS
VL: SYELTQPPSVSVSPGQTARITCSGDALPKRYAYWYQQKSGQAPILVIYEDKKRPSGIPERLSGSKSGTVATLTISGAQVEDEADYYCYSTDSSGNHAVFGGGTQLTVL
notes: IgG; source: Expi293F, transfected, purified (Protein A)
B2: S2P6 mAb (antibody, V domains shown)
VH: EVQLVQSGAEVKKPGASVKVSCKASGYTFTSQYMHWVRQAPGQGLEWIGIINPSGVHTSYAQKFQGRVTLTRDTSTSTLYMELSSLRSEDTAVYYCARGSPKGAFDYWGQGTLVTVSS
VL: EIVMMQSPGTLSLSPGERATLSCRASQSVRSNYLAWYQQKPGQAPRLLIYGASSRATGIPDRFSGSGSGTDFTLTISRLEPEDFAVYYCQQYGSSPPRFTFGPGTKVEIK
notes: IgG; IGHV1-46/IGKV3-20; source: Expi293F, transfected, purified (Protein A)

Columns and labels:
[1] = molecular target: SARS-CoV-1 Spike protein, 2 P (SARS-CoV-1, isolate , UniProt P59594, stabilised); assay: ELISA; conditions: both partners purified
MERS Spike protein, 2 P = MERS Spike protein, 2 P (MERS-CoV, isolate  (entry: …, UniProt K9N5Q8, stabilised)); assay: ELISA; conditions: both partners purified

Row | Binder | binding result [1] | binding result (MERS Spike protein, 2 P)
1 | B1 | binds | 
2 | B2 | binds | binds
